Here are results for eight proteins from FireProtDB.

The conditions of this data set: whole UniProt chain shown.
Where [1] appears, read: Oryza sativa subsp. japonica, pH 7, Thermal, DSC, Potassium phosphate buffer, NaCl, reversible: yes.
[2] abbreviates: Paracoccus pantotrophus, pH 7, 25 °C, Urea, CD, Sodium phosphate 20 mM, Na2SO4 0.5 M, reversible: yes.
Setting [3] is: Saccharomyces cerevisiae (strain ATCC 204508 / S288c), pH 8.5, Thermal, DSC, Tris 0.05 M, reversible: no.
The mark [4] stands for this setting: Rattus norvegicus, pH 7.5, Thermal, Fluorescence, TEA 50 mM, transition: 3.
The mark [5] stands for this setting: Pectobacterium carotovorum, pH 7.4, Thermal, DSC, CGH-10, reversible: no.
Where [6] appears, read: Ovis aries, pH 7, 25 °C, GdnHCl, CD, HEPES 20 mM, reversible: yes.
Setting [7] is: Ovis aries, pH 7, 25 °C, GdnHCl, Fluorescence, HEPES 20 mM, reversible: yes.
The mark [8] stands for this setting: Saccharomyces cerevisiae (strain ATCC 204508 / S288c), pH 6, Thermal, Absorbance, Sodium phosphate 100 mM, reversible: yes.

Several values for one entry are separate records, joined by “and”; a condition that tells them apart may be missing. Equal entries are not always repeated.

B1: Protein CutA 1, chloroplastic wild type, Q109R6 (protein)
chain: MPLLPSPLGSLSAAATAAPRRAAAAAGLSPLLLRRRAPIAGALLFLSLGAFAGVRSLSSSASARMESTSTTVPSIVVYVTVPNKEAGKRLAGSIISEKLAACVNIVPGIESVYWWEGKVQTDAEELLIIKTRESLLDALTEHVKANHEYDVPEVIALPIKGGNLKYLEWLKNSTRES
For orientation: Tm means the temperature at which the thermal transition is half complete. For B1, under setting [1], the Tm was 97.3 °C, the “unfolding enthalpy (calorimetric)” value was 347 kcal/mol and the unfolding free energy came to 0.79 kcal/mol. Besides, for the setting “Oryza sativa subsp. japonica, pH 8, 37 °C, GdnHCl, CD, Tris-HCl buffer, NaCl, transition: 2, reversible: yes”, the “denaturant midpoint (higher = more stable)” value came out at 2.3 M.

B2: Pseudoazurin wild type, P80401 (protein)
chain: MFHHSLAAAAAALLALAAPGFAATHEVHMLNKGESGAMVFEPAFVRAEPGDVINFVPTDKSHNVEAIKEILPEGVESFKSKINESYTLTVTEPGLYGVKCTPHFGMGMVGLVQVGDAPENLDAAKTAKMPKKARERMDAELAQVN
In the case of B2, under setting [2], the denaturant m value is 1.87 kcal/mol/M and the unfolding free energy was 6.88 kcal/mol.

B3: Triosephosphate isomerase wild type, P00942 (protein)
chain: MARTFFVGGNFKLNGSKQSIKEIVERLNTASIPENVEVVICPPATYLDYSVSLVKKPQVTVGAQNAYLKASGAFTGENSVDQIKDVGAKWVILGHSERRSYFHEDDKFIADKTKFALGQGVGVILCIGETLEEKKAGKTLDVVERQLNAVLEEVKDWTNVVVAYEPVWAIGTGLAATPEDAQDIHASIRKFLASKLGDKAASELRILYGGSANGSNAVTFKDKADVDGFLVGGASLKPEFVDIINSRN
Take B3: under setting [3], the Tm was 59 °C, the “heat capacity change of unfolding” value was determined as 11.7 kcal/mol/K and the “unfolding enthalpy (calorimetric)” value was 318 kcal/mol.

B4: T-cell surface antigen CD2 wild type, P08921 (protein)
chain: MRCKFLGSFFLLFSLSSKGADCRDSGTVWGALGHGINLNIPNFQMTDDIDEVRWERGSTLVAEFKRKMKPFLKSGAFEILANGDLKIKNLTRDDSGTYNVTVYSTNGTRILNKALDLRILEMVSKPMIYWECSNATLTCEVLEGTDVELKLYQGKEHLRSLRQKTMSYQWTNLRAPFKCKAVNRVSQESEMEVVNCPEKGLPLYLIVGVSAGGLLLVFFGALFIFCICKRKKRNRRRKGEELEIKASRMSTVERGPKPHSTQASAPASQNPVASQAPPPPGHHLQTPGHRPLPPSHRNREHQPKKRPPPSGTQVHQQKGPPLPRPRVQPKPPCGSGDVSLPPPN
For B4, under setting [4], the Tm came out at 24.9 °C; the “heat capacity change of unfolding” value was 0.5 kcal/mol/K and 0.98 kcal/mol/K; the “unfolding enthalpy (van 't Hoff)” value came out at 14.5 kcal/mol.

B5: Pectate lyase wild type, Q47471 (protein)
chain: MFKYLTPIFLCTAAFSFQAQADDTMLMLLKKDNATYLSWSTDAGNVVRQDVYRSTSNNQAGSEKIAELNSTDRTFTDLTANPKSDYWYWVDTVSSNNNVQKSNAAQTAPAPLRAAPLKAASSECKAGAVIKDKTVDCGGITLGLSCTGDSDKQPPVITLENATIKNLRISEKGGSDGIHCKSGNCRIENVIWEDVCEDAATNLGKTMTIVGGVAHNTTNGPGGKPDKVLQQNAKNSHTIVQGNFTLTGQHGKLWRSCGDCTNNGGPRNLTIISATVNGTIDSIAGVNRNFGDVAEIRDLRIKNYKAGNPKICEEFKGIEKGKGKTEKYGEFWDSKNCKVSRSNVKAL
Take B5: the unfolding free energy (Pectobacterium carotovorum, pH 7.4, 25 °C, GdnHCl, DSC, CGH-10, reversible: no) turned out to be 8.7 kcal/mol. Under setting [5], the Tm amounted to 81.1 °C and the “unfolding enthalpy (calorimetric)” value came to 102 kcal/mol.

B6: D-amino-acid oxidase wild type, P80324 (protein)
chain: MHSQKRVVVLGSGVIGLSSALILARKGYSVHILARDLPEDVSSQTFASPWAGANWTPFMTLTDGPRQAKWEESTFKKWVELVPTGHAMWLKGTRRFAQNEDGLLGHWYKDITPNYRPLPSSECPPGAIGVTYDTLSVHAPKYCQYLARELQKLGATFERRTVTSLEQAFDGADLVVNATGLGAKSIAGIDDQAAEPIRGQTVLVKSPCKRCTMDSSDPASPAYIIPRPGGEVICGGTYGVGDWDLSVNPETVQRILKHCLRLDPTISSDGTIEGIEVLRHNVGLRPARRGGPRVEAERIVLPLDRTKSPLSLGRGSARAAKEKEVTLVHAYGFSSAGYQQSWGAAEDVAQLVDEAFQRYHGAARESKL
B6: the Tm reads like this: (Rhodotorula toruloides, pH 7.5, Thermal, CD, Potassium phosphate 50 mM, reversible: No) 50.2 °C and 48 °C; (Rhodotorula toruloides, pH 7.5, Thermal, DSC, Potassium phosphate 50 mM, reversible: No) 56.9 °C and 55.9 °C; (Rhodotorula toruloides, pH 7.5, Thermal, Fluorescence, Potassium phosphate 50 mM, NH4SCN 0.5 M, reversible: No) 39 °C and 39.7 °C.

B7: Pyridoxal kinase wild type, P82197 (protein)
chain: MEEECRVLSIQSHVVRGYVGNRAATFPLQVLGFEVDAVNSVQFSNHTGYSHWKGQVLNSDELQELYDGLKLNHVNQYDYVLTGYTRDKSFLAMVVDIVQELKQQNPRLVYVCDPVMGDQRNGEGAMYVPDDLLPVYREKVVPVADIITPNQFEAELLTGRKIHSQEEALEVMDMLHSMGPDTVVITSSNLLSPRGSDYLMALGSQRTRAPDGSVVTQRIRMEMHKVDAVFVGTGDLFAAMLLAWTHKHPNNLKVACEKTVSAMHHVLQRTIKCAKAKSGEGVKPSPAQLELRMVQSKKDIESPEIVVQATVL
In the case of B7, under setting [6], the denaturant m value was 2.41 kcal/mol/M and the unfolding free energy came to 1.55 kcal/mol. Under setting [7], the denaturant m value amounted to 2.9 kcal/mol/M and the unfolding free energy is 1.5 kcal/mol.

B8: Holocytochrome-c synthase wild type, P06182 (protein)
chain: MGWFWADQKTTGKDIGGAAVSSMSGCPVMHESSSSSPPSSECPVMQGDNDRINPLNNMPELAASKQPGQKMDLPVDRTISSIPKSPDSNEFWEYPSPQQMYNAMVRKGKIGGSGEVAEDAVESMVQVHNFLNEGCWQEVLEWEKPHTDESHVQPKLLKFMGKPGVLSPRARWMHLCGLLFPSHFSQELPFDRHDWIVLRGERKAEQQPPTFKEVRYVLDFYGGPDDENGMPTFHVDVRPALDSLDNAKDRMTRFLDRMISGPSSSSSAP
In the case of B8, under setting [8], the melting temperature (Tm) worked out at 46.5 °C, the “heat capacity change of unfolding” value was 2 kcal/mol/K and the “unfolding enthalpy (van 't Hoff)” value worked out at 79 kcal/mol.
